Test [1] relates to peripheral blood WBC. Briefly: Peripheral blood WBC counts of treated mice. As to conditions: 7 day treatment. Format: in vivo. As for the experimental part: G-CSF mobilization increases the circulating WBC count in mice and humans with typical counts approximately 25,000 to 30,000 WBC/μl. The effects of the combination of SP+G-CSF on peripheral WBC in treated mice was evaluated.
The different effects on peripheral WBC count of mobilization agents used were established.

The subject of a further test is mesenchymal stem cells. Briefly: Mouse model of mobilization: MSC formation in culture of peripheral blood WBC from treated mice. To be noted: for Stromal cell formation in cultures of WBC: SP 10 μg/kg or rhG-CSF 250 ug/kg i.p. for 4 days, PB harvested on fifth day; for Stromal cell formation in cultures of WBC / MSC / adherent stromal cell formation after 5 to 7 days of culture: 35 mm wells; for MSC / adherent stromal cell formation after 5 to 7 days of culture / MSC foci after 10 days of culture: SP 10 μg/kg, i.p. 4 days; for MSC / adherent stromal cell formation after 5 to 7 days of culture: rhG-CSF 250 μg/kg or both; for MSC foci after 10 days of culture: rhG-CSF 250 μg/kg. Format: in vivo. As for the experimental part: To evaluate the potential of different mobilization agents, a mouse model of mobilization was used. Groups of mice (n=5) were treated with cytokines or mobilization agents and peripheral blood harvested into heparin containing tubes. The blood was treated with ammonium chloride to lyse the red cells and the white cells plated in 6 well plates treated with gelatin and evaluated for MSC formation at various time points.
Mice were injected intraperitoneally with 250 ug/kg of rhG-CSF (Amgen Inc, Thousand Oaks, Calif.) or normal saline for 5 days and PB harvested on the fifth day. The white cells were plated in media from Stem Cell Technologies (Vancouver, Canada) for culture of mesenchymal stem cells with murine supplements.
Mice (groups of 5 mice per treatment arm) were injected intraperitoneally with 10 μg/kg of Substance P (Sigma-Aldrich, St Louis, Mo.) or with 250 ug/kg of rhG-CSF for 4 days and PB harvested on the fifth day. The white cells were plated in media from Stem Cell Technologies (Vancouver, Canada) for culture of mesenchymal stem cells with murine supplements.
Mice (groups of 5 mice per treatment arm) were injected intraperitoneally with 10 μg/kg of Substance P (Sigma-Aldrich, St Louis, Mo.), with 250 μg/kg of rhG-CSF, or the combination of 10 μg/kg SP plus 250 μg/kg rhG-CSF for 4 days and PB harvested on the fifth day. The white cells were plated in media from Stem Cell Technologies (Vancouver, Canada) for culture of mesenchymal stem cells with murine supplements.

The next test deals with GM-CFC. Description: Hematopoietic progenitor colony forming assay of WBC from treated mice. It counts as in vivo. To be noted: for Number of GM-CFC (n = 3): median colony number per 200,000 cells plated, methylcellulose culture, 10 days of incubation, triplicate cultures; for Type of colonies formed in cultures of WBC: methylcellulose colony assay. As to the method:
WBC from treated mice were also plated in standard hematopoietic progenitor colony forming assays. Colony formation from cultures of 200,000 cells per 35 mm petri dishes were scored at 10 days of culture.
The median colony number pre 200,000 cells plated is presented from 3 triplicate cultures containing 1 ml of methycellulose plus rmIL-3, rmGM-CSF, rrSCF and rhG-CSF.

Test [2] relates to peripheral blood WBC. As to conditions: mice and humans, general statement; cited from earlier work.
The subject of a further test is MSCs or MSC precursors. Briefly: Culture of rhG-CSF mobilized peripheral blood from normal donors under MSC conditions. Format: in vivo. To be noted: normal human donors mobilized with G-CSF, standard MSC culture. As to the method: Normal unmobilized PB and PB from normal donors mobilized with rhG-CSF was obtained and the potential of the MNCs to generate MSCs was evaluated. When placed in standard culture there was development of adherent cells that appeared like adipocyte cells and endothelial cells (FIG. 1).

Take “Substance P (RPKPQQFFGLM; printed: Arg Pro Lys Pro Gln Gln Phe Phe Gly Leu Met) [SP, Sigma-Aldrich, reference compound]”: the “Effect on peripheral blood WBC levels” value with peripheral blood WBC [1] was “no significant effect”. Besides, in the test with mesenchymal stem cells, the “Stromal cell formation in cultures of WBC” value is on record as “generated adherent stromal cells after 5 to 7 days with several foci”, the “MSC / adherent stromal cell formation after 5 to 7 days of culture” value is recorded as “a few adherent stromal cells” and the “MSC foci after 10 days of culture” value is recorded as “several MSC foci”. In addition, in the test on mesenchymal stem cells (WBC from SP treated mice), the “Blast like cells on cytospin slides of WBC” value is “increase in blast like cells”. In the test on GM-CFC, the “Number of GM-CFC (n = 3)” value was found to be 5; the “Type of colonies formed in cultures of WBC” value is “colonies containing both hematopoietic and MSC cells”.

B1: rhG-CSF: recombinant human granulocyte colony-stimulating factor (Amgen) (protein, UniProt P09919 31-207, looked up)
Granulocyte …: TPLGPASSLPQSFLLKCLEQVRKIQGDGAALQEKLVSECATYKLCHPEELVLLGHSLGIPWAPLSSCPSQALQLAGCLSQLHSGLFLYQGLLQALEGISPELGPTLDTLQLDVADFATTIWQQMEELGMAPALQPTQGAMPAFASAFQRRAGGVLVASHLQSFLEVSYRVLRHLAQP
As to B1, in the test on peripheral blood WBC [2], the “Typical circulating WBC count after mobilization” value is 25,000 to 30,000 WBC/μl. Further, in the test on mesenchymal stem cells (250 ug/kg intraperitoneally for 5 days, PB harvested on the fifth day), the “Adherent cells in cultures of WBC” value was “failed to proliferate and resembled endothelial cells not MSCs”. Moreover, in the test on mesenchymal stem cells, the “Stromal cell formation in cultures of WBC” value is reported as “no stromal cell formation evident”, the “MSC / adherent stromal cell formation after 5 to 7 days of culture” value was “one area with MSC cells” and the “MSC foci after 10 days of culture” value is given as “one foci”. Besides, in the test with GM-CFC, the “Number of GM-CFC (n = 3)” value was found to be 26 and the “Type of colonies formed in cultures of WBC” value is recorded as “Typical hematopoietic colonies”. Further, the “MSC formation from mobilized peripheral blood cells” value with MSCs or MSC precursors is given as “no evidence of MSC formation”. Moreover, the “MSC formation from mobilized peripheral blood cells” value with MSCs or MSC precursors (listed as G-CSF) is reported as “fail to generate mesenchymal stem cells”.

(Values after patent publication US20120225028A1, “COMPOSITIONS AND METHODS FOR MOBILIZATION OF STEM CELLS” (priority 2011, published 2012).)
